Patent publication US20160153985A1

Experiments:
[1] = biological target: pure human iC3b (Complement Technology, A115) (human) (UniProt P01024); test: sandwich ELISA of Example 5, iC3b concentration labeled 0.0125 in 20% human vitreous, duplicate 1
[2] = biological target: pure human iC3b (Complement Technology, A115) (human) (UniProt P01024); test: sandwich ELISA, capture A209 (Example 5), goat anti-C3-HRP; TABLE 6 well C7, 30% vitreous
[3] = biological target: pure human iC3b (Complement Technology, A115) (human) (UniProt P01024); test: sandwich ELISA, capture A209 (Example 5), goat anti-C3-HRP; TABLE 6 well G8, 10% vitreous
[4] = biological target: pure human iC3b (Complement Technology, A115) (human) (UniProt P01024); test: sandwich ELISA, capture A209 (Example 5), goat anti-C3-HRP; TABLE 6 well A9, blocker
[5] = biological target: pure human iC3b (Complement Technology, A115) (human) (UniProt P01024); test: sandwich ELISA, capture A209 (Example 5), goat anti-C3-HRP; TABLE 6 well A5, blocker
[6] = biological target: pure human iC3b (Complement Technology, A115) (human) (UniProt P01024); test: sandwich ELISA, capture A209 (Example 5), goat anti-C3-HRP; TABLE 7, iC3b in 10% vitreous
[7] = biological target: pure human iC3b (Complement Technology, A115) (human) (UniProt P01024); test: sandwich ELISA, capture A209 (Example 5), goat anti-C3-HRP; TABLE 6 well G2, 10% vitreous
[8] = biological target: pure human iC3b (Complement Technology, A115) (human) (UniProt P01024); test: sandwich ELISA, capture A209 (Example 5), goat anti-C3-HRP; TABLE 6 well D4, 30% vitreous
[9] = biological target: pure human iC3b (Complement Technology, A115) (human) (UniProt P01024); test: sandwich ELISA, capture A209 (Example 5), goat anti-C3-HRP; TABLE 6 well C5, 30% vitreous
[10] = biological target: pure human iC3b (Complement Technology, A115) (human) (UniProt P01024); test: sandwich ELISA, capture A209 (Example 5), goat anti-C3-HRP; TABLE 6 well G6, 10% vitreous
[11] = biological target: pure human iC3b (Complement Technology, A115) (human) (UniProt P01024); test: sandwich ELISA, capture A209 (Example 5), goat anti-C3-HRP; TABLE 6 well G4, 10% vitreous
[12] = biological target: pure human iC3b (Complement Technology, A115) (human) (UniProt P01024); test: sandwich ELISA, capture A209 (Example 5), goat anti-C3-HRP; TABLE 7, iC3b in blocker
[13] = biological target: pure human iC3b (Complement Technology, A115) (human) (UniProt P01024); test: sandwich ELISA, capture A209 (Example 5), goat anti-C3-HRP; TABLE 6 well A2, blocker
[14] = biological target: pure human iC3b (Complement Technology, A115) (human) (UniProt P01024); test: sandwich ELISA, capture A209 (Example 5), goat anti-C3-HRP; TABLE 6 well A4, blocker
[15] = biological target: pure human iC3b (Complement Technology, A115) (human) (UniProt P01024); test: sandwich ELISA, capture A209 (Example 5), goat anti-C3-HRP; TABLE 6 well H6, 10% vitreous
[16] = biological target: pure human iC3b (Complement Technology, A115) (human) (UniProt P01024); test: sandwich ELISA of Example 5, iC3b concentration labeled 0.0125 in 20% human vitreous, duplicate 2
[17] = biological target: pure human iC3b (Complement Technology, A115) (human) (UniProt P01024); test: sandwich ELISA, capture A209 (Example 5), goat anti-C3-HRP; TABLE 6 well F2, 20% vitreous
[18] = biological target: pure human iC3b (Complement Technology, A115) (human) (UniProt P01024); test: sandwich ELISA, capture A209 (Example 5), goat anti-C3-HRP; TABLE 6 well H7, 10% vitreous
[19] = biological target: pure human iC3b (Complement Technology, A115) (human) (UniProt P01024); test: sandwich ELISA, capture A209 (Example 5), goat anti-C3-HRP; TABLE 6 well G7, 10% vitreous
[20] = biological target: pure human iC3b (Complement Technology, A115) (human) (UniProt P01024); test: sandwich ELISA, capture A209 (Example 5), goat anti-C3-HRP; TABLE 6 well F9, 20% vitreous
[21] = biological target: pure human iC3b (Complement Technology, A115) (human) (UniProt P01024); test: sandwich ELISA, capture A209 (Example 5), goat anti-C3-HRP; TABLE 6 well D9, 30% vitreous
[22] = biological target: pure human iC3b (Complement Technology, A115) (human) (UniProt P01024); test: sandwich ELISA, capture A209 (Example 5), goat anti-C3-HRP; TABLE 6 well B8, blocker
[23] = biological target: pure human iC3b (Complement Technology, A115) (human) (UniProt P01024); test: sandwich ELISA, capture A209 (Example 5), goat anti-C3-HRP; TABLE 6 well D8, 30% vitreous
[24] = biological target: pure human iC3b (Complement Technology, A115) (human) (UniProt P01024); test: sandwich ELISA, capture A209 (Example 5), goat anti-C3-HRP; TABLE 6 well C3, 30% vitreous

Sequence of UniProt P01024 (P01024 23-667 limits assumed, chain 1 of 3): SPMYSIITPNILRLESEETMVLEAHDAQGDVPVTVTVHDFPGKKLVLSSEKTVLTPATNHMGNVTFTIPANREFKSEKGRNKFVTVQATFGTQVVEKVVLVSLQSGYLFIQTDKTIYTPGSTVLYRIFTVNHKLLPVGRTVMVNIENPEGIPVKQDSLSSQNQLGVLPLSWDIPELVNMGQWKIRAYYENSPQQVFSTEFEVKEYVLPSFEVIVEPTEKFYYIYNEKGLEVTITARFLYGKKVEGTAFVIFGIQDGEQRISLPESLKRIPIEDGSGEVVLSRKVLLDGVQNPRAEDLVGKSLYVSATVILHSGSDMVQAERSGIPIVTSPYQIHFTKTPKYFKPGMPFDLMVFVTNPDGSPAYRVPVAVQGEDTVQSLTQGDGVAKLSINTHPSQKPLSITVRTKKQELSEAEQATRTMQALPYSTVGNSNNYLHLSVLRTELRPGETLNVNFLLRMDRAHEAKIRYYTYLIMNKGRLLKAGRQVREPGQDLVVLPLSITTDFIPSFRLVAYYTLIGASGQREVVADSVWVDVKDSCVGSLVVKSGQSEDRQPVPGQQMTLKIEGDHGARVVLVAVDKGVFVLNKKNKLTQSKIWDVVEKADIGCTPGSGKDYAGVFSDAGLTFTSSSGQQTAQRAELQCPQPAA
Sequence of UniProt P01024 (P01024 749-1303 limits assumed, chain 2 of 3): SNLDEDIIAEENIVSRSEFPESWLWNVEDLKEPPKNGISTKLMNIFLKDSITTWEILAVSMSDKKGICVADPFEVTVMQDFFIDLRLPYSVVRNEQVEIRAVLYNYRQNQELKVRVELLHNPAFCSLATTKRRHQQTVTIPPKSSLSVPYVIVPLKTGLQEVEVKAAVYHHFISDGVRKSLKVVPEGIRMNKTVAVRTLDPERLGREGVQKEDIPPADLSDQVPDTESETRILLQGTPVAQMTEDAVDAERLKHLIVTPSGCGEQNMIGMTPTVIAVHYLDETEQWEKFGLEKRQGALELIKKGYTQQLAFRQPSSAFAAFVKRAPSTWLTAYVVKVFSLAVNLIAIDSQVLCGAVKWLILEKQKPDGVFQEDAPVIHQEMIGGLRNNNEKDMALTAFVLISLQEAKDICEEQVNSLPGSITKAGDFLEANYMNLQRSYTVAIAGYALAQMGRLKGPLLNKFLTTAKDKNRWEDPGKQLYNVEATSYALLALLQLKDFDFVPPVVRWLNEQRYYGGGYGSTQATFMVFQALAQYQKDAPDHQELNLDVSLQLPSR
Sequence of UniProt P01024 (P01024 1321-1663 limits assumed, chain 3 of 3): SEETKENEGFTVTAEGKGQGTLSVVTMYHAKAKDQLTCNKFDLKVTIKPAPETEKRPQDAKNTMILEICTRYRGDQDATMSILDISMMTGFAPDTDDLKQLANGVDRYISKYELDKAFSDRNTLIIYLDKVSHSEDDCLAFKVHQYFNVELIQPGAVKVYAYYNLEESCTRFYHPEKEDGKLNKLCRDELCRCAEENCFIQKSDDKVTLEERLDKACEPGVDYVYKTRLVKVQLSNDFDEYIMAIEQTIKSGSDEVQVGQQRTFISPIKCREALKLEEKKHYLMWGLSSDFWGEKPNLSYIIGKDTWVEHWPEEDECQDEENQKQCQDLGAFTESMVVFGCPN

mouse anti-iC3b antibody A209 (Quidel) gave an absorbance A450, raw [1] of 0.361 A450, a raw A450 at iC3b 0.031 ug/ml [2] of 0.355 OD and a raw A450 at iC3b 0.016 ug/ml [3] of 0.227 OD. The raw A450 at iC3b 0.0078 ug/ml [4] was 0.035 OD, the raw A450 at iC3b 0.125 ug/ml [5] was 0.106 OD and the A450 minus matrix average at iC3b 0.0078 ug/ml [6] was -0.008 OD. It also gave an A450 minus matrix average at iC3b 0.016 ug/ml [6] of 0.006 OD, an A450 minus matrix average at iC3b 0.031 ug/ml [6] of 0.014 OD and an A450 minus matrix average at iC3b 0.063 ug/ml [6] of 0.017 OD. The A450 minus matrix average at iC3b 0.125 ug/ml [6] was 0.062 OD, the A450 minus matrix average at iC3b 0.25 ug/ml [6] was 0.056 OD and the A450 minus matrix average at iC3b 0.5 ug/ml [6] was 0.125 OD. For the same substance, the A450 minus matrix average at iC3b 1 ug/ml [6] was 0.239 OD, the raw A450 at iC3b 1 ug/ml [7] was 0.508 OD and the raw A450 at iC3b 0.25 ug/ml [8] was 0.433 OD. It also gave a raw A450 at iC3b 0.125 ug/ml [9] of 0.385 OD, a raw A450 at iC3b 0.063 ug/ml [10] of 0.254 OD and a raw A450 at iC3b 0.25 ug/ml [11] of 0.28 OD. The A450 minus matrix average at iC3b 0.016 ug/ml [12] was 0.011 OD, the A450 minus matrix average at iC3b 0.031 ug/ml [12] was 0.021 OD and the A450 minus matrix average at iC3b 0.063 ug/ml [12] was 0.037 OD. For the same substance, the A450 minus matrix average at iC3b 0.125 ug/ml [12] was 0.073 OD, the A450 minus matrix average at iC3b 0.25 ug/ml [12] was 0.138 OD and the A450 minus matrix average at iC3b 0.5 ug/ml [12] was 0.232 OD. It also gave an A450 minus matrix average at iC3b 1 ug/ml [12] of 0.328 OD, a raw A450 at iC3b 1 ug/ml [13] of 0.371 OD and a raw A450 at iC3b 0.25 ug/ml [14] of 0.169 OD. The raw A450 at iC3b 0.063 ug/ml [15] was 0.23 OD, the absorbance A450, raw [16] was 0.384 A450 and the raw A450 at iC3b 1 ug/ml [17] was 0.527 OD. It also gave a raw A450 at iC3b 0.031 ug/ml [18] of 0.231 OD, a raw A450 at iC3b 0.031 ug/ml [19] of 0.248 OD and a raw A450 at iC3b 0.0078 ug/ml [20] of 0.38 OD. It also gave a raw A450 at iC3b 0.0078 ug/ml [21] of 0.362 OD, a raw A450 at iC3b 0.016 ug/ml [22] of 0.038 OD and a raw A450 at iC3b 0.016 ug/ml [23] of 0.355 OD. For the same substance, the raw A450 at iC3b 0.5 ug/ml [24] was 0.406 OD.
